How the values were obtained:
huIL-1β-His [1] = molecular target: T1, huIL-1β-His (human, UniProt P01584 117-269); assay: ELISA, plate coated with huIL-1β-His, anti-human IgG Fc-HRP; positive control
huIL-1β-His [2] = molecular target: T1, huIL-1β-His; assay: ELISA, plate coated with huIL-1β-His, anti-human IgG Fc-HRP
[3] = molecular target: T2, full-length human PD-L1 on huPD-L1-CHO-K cells (human, UniProt Q9NZQ7 19-290); assay: flow cytometry on huPD-L1-CHO-K cells, PE anti-human IgG Fc
T2 construct: also called huPD-L1-overexpressing-CHO-K cells; CD3L-PD-L1-CHO

huPD-L1-His [4] = molecular target: T3, huPD-L1-His (human, UniProt Q9NZQ7 19-238); assay: ELISA, plate coated with huPD-L1-His, anti-human IgG Fc-HRP
T3 construct: also called human recombinant protein huPD-L1-His; antigen PD-L1

huPD-L1-Fc = huPD-L1-Fc (human); assay: bridging ELISA: coated huPD-L1-Fc, antibody, then huIL-1β-His, anti-His-HRP
huIL-1β-His [5] = molecular target: T1, huIL-1β-His; assay: as above
huIL-1β-Fc = molecular target: T4, huIL-1β-Fc (human); assay: bridging ELISA: coated huIL-1β-Fc, antibody, then huPD-L1-His, anti-His-HRP
T4 construct: also called huIL-1β-Fe

huPD-L1-His [6] = molecular target: T3, huPD-L1-His; assay: as above

Binder	binding result (huIL-1β-His [2])	binding result [3]	also measured
Canakinumab (antibody, human IgG1, kappa, V domains shown, also called positive control Canakinumab) VH: QVQLVESGGGVVQPGRSLRLSCAASGFTFSVYGMNWVRQAPGKGLEWVAIIWYDGDNQYYADSVKGRFTISRDNSKNTLYLQMNGLRAEDTAVYYCARDLRTGPFDYWGQGTLVTVSS VL: EIVLTQSPDFQSVTPKEKVTITCRASQSIGSSLHWYQQKPDQSPKLLIKYASQSFSGVPSRFSGSGSGTDFTLTINSLEAEDAAAYYCHQSSSLPFTFGPGTKVDIKR			binding result (huIL-1β-His [1]): binds
BsAb17 (bispecific antibody, Atezolizumab heavy (Knob) and light chain; Canakinumab VH-CL-Fc (hole); also called Construct BsAb17) heavy: not shown light: not shown chain 1: not shown chain 2: EIVLTQSPDFQSVTPKEKVTITCRASQSIGSSLHWYQQKPDQSPKLLIKYASQSFSGVPSRFSGSGSGTDFTLTINSLEAEDAAAYYCHQSSSLPFTFGPGTKVDIKSSASTKGPSVFPLAPSSKSTSGGTAALGCLVKDYFPEPVTVSWNSGALTSGVHTFPAVLQSSGLYSLSSVVTVPSSSLGTQTYICNVNHKPSNTKVDKKVEPKSC	binds		
BsAb22 (bispecific antibody, Atezolizumab heavy chain (Fc with F405L) and light chain; Canakinumab VH-CL-Fc (K409R); also called Construct BsAb22) heavy: not shown light: not shown chain 1: not shown chain 2: EIVLTQSPDFQSVTPKEKVTITCRASQSIGSSLHWYQQKPDQSPKLLIKYASQSFSGVPSRFSGSGSGTDFTLTINSLEAEDAAAYYCHQSSSLPFTFGPGTKVDIKSSASTKGPSVFPLAPSSKSTSGGTAALGCLVKDYFPEPVTVSWNSGALTSGVHTFPAVLQSSGLYSLSSVVTVPSSSLGTQTYICNVNHKPSNTKVDKRVEPKSC	binds		
BsAb25 (bispecific antibody, Canakinumab IgG1 heavy chain-(G4S)4-Atezolizumab scFv (VH G44C-(G4S)4-VL Q100C); also called Construct BsAb25) heavy: not shown light: EIVLTQSPDFQSVTPKEKVTITCRASQSIGSSLHWYQQKPDQSPKLLIKYASQSFSGVPSRFSGSGSGTDFTLTINSLEAEDAAAYYCHQSSSLPFTFGPGTKVDIKRTVAAPSVFIFPPSDEQLKSGTASVVCLLNNFYPREAKVQWKVDNALQSGNSQESVTEQDSKDSTYSLSSTLTLSKADYEKHKVYACEVTHQGLSSPVTKSFNRGEC	binds	binds	binding result (huPD-L1-His [4]): binds
BsAb29 (bispecific antibody, also called Construct BsAb29) heavy: not shown light: EIVLTQSPDFQSVTPKEKVTITCRASQSIGSSLHWYQQKPDQSPKLLIKYASQSFSGVPSRFSGSGSGTDFTLTINSLEAEDAAAYYCHQSSSLPFTFGPGTKVDIKRTVAAPSVFIFPPSDEQLKSGTASVVCLLNNFYPREAKVQWKVDNALQSGNSQESVTEQDSKDSTYSLSSTLTLSKADYEKHKVYACEVTHQGLSSPVTKSFNRGEC		binds	binding result (huPD-L1-Fc): binds; binding result (huIL-1β-His [5]): binds; binding result (huIL-1β-Fc): binds; binding result (huPD-L1-His [6]): binds
BsAb18 (bispecific antibody, Atezolizumab heavy (Knob) and light chain; Canakinumab VL-IgG1 constant region (hole); also called Construct BsAb18) heavy: not shown light: not shown chain 1: not shown chain 2: QVQLVESGGGVVQPGRSLRLSCAASGFTFSVYGMNWVRQAPGKGLEWVAIIWYDGDNQYYADSVKGRFTISRDNSKNTLYLQMNGLRAEDTAVYYCARDLRTGPFDYWGQGTLVTVSSASVAAPSVFIFPPSDEQLKSGTASVVCLLNNFYPREAKVQWKVDNALQSGNSQESVTEQDSKDSTYSLSSTLTLSKADYEKHKVYACEVTHQGLSSPVTKSFNRGEC	binds		

Source: EP4737484A1 (Phil Rivers Technology Co., Ltd, dated 2026)
